# Where a chain is given by its changes, count along the chain named.
# B1: COMBO_Rd4_0.6nM_C19 (antibody, V domains shown)
# VH: EVQLLESGGGLVQPGGSLRLSCAASGFTFSSYPMSWVRQAPGKGLEWVSAIGGSGGSLPYADSVKGRFTISRDNSKNTLYLQMNSLRAEDTAVYYCARYWPMDSWGQGTLVTVSS
# VL: EIVLTQSPGTLSLSPGERATLSCRASQSVSAVYLAWYQQKPGQAPRLLMYDASIRATGIPDRFSGSGSGTDFTLTISRLEPEDFAVYYCQQYRAWPLTFGQGTKVEIK
# notes: IgG in SPR
# B2: L3.PY/P6E01 (antibody, V domains shown)
# VH: EVQLLESGGGLVQPGGSLRLSCAASGFTFGSYAMTWVRQAPGKGLEWVSAISGSGGNTFYADSVKGRFTISRDNSKNTLYLQMNSLRAEDTAVYYCARVSPIASGMDYWGQGTLVTVSS
# VL: EIVLTQSPGTLSLSPGERATLSCRASQSVSSSYLAWYQQKPGQAPRLLIYGASSRATGIPDRFSGSGSGTDFTLTISRLEPEDFAVYYCQHYPYPPSFTFGQGTKVEIK
# notes: IgG in the assay
# B3: L3.KW/P6E01 (antibody, V domains shown)
# VH: B2 VH
# VL: B2 VL with Q90K, P93G, Y94W
# notes: IgG in the assay
# B4: L3.NY/P6E01 (antibody, V domains shown)
# VH: B2 VH
# VL: B2 VL with P93N
# notes: IgG in the assay
# B5: h2B4-VH-wt VL_TK (antibody, V domains shown)
# VH: EVQLVESGGGLVQPGGSLRLSCAASGFTFSDYYMTWVRQAPGKGLEWVAFIRNRARGYTSDHNASVKGRFTISRDNAKNSLYLQMNSLRAEDTAVYYCARDRPSYYVLDYWGQGTTVTVSS
# VL: DIVMTQSPDSLAVSLGERATINCKSSQSLFNVRSRKNYLAWYQQKPGQPPKLLISWASTRESGVPDRFSGSGSGTDFTLTISSLQAEDVAVYYCKQSYDLFTFGSGTKLEIK
# notes: Anti-CD3; also called h2B4-TK
# B6: h2B4 (antibody, V domains shown)
# VH: B5 VH
# VL: B5 VL with K24T
# notes: Anti-CD3; tested as human IgG immobilised on the chip; also called h2B4-1d
# B7: h2B4-VH-hnps VL_TK (antibody, V domains shown)
# VH: B5 VH with A64P
# VL: B5 VL
# notes: Anti-CD3; also called h2B4-hnpsTK
# B8: h2B4-VH-yads VL_TK (antibody, V domains shown)
# VH: B5 VH with H62Y, N63A, A64D
# VL: B5 VL
# notes: Anti-CD3
# B9: h2B4-VH-yaes VL_TK (antibody, V domains shown)
# VH: B5 VH with H62Y, N63A, A64E
# VL: B5 VL
# notes: Anti-CD3; also called h2B4-yaesTK
# B10: h2B4-VH-yaps VL_TK (antibody, V domains shown)
# VH: B5 VH with H62Y, N63A, A64P
# VL: B5 VL
# notes: Anti-CD3
# B11: UCHT1 (antibody, V domains shown)
# VH: EVQLQQSGPELVKPGPSMKISCKASGYSFTGYTMNWVKQSHGKNLEWMGLINPYKGVSTYNQKFKDKATLTVDKSSSTAYMELLSLTSEDSAVYYCARSGYYGDSDWYFDVWGQGTTLTVFS
# VL: DIQMTQTTSSLSASLGDRVTISCRASQDIRNYLNWYQQKPDGTVKLLIYYTSRLHSGVPSKFSGSGSGTDYSLTISNLEQEDIATYFCQQGNTLPWTFAGGTKLEIKR
# B12: 2B4 (antibody, mouse IgG1, V domains shown)
# VH: EVKLVESGGGLVQPGGSLRLSCATFGFTFTDYYMTWVRQPPGKALEWVAFIRNRARGYTSDHNASVKGRFTISRDNSQNILYLQMNTLRAEDSATYYCARDRPSYYVLDYWGQGTTVTVSS
# VL: DIVMSQSPPSLAVSVGDKVTMSCTSSQSLFNSRSRKNYLAWYQQKSGQSPKLLISWASTRESGVPDRFTGSGSGTDFTLTISSVQAEDLAVYYCKQSYDLFTFGSGTKLEIK
# notes: Cloned from immunized mouse, expressed as mouse IgG1; also called anti-CD3 2B4
# B13: 1C10 (antibody, mouse IgG1, V domains shown)
# VH: QVQLQQPGSELVRPGASVILSCKASGYTFTSYWMHWVRQRPGQGLEWIGNIYSGGDTINYDEKFKNKAILTVDTSSSTAYMHLSSLTSEDSAVYYCTRDATSRYFFDYWGQGTTVTVSS
# VL: DIVMSQSPSSLAVSAGEKVTMSCKSSQSLLNSRTRKNYLAWYQQKPGQSPKLLIYWASTRESGVPDRFTGSGSGTDFTLTIDSVQPEDLAVYYCTQSFILRTFGGGTKLEIK
# notes: Cloned from immunized mouse, expressed as mouse IgG1; also called anti-CD3 1C10
# Tests used:
# human BCMA [1] = target: T1, human BCMA (human, UniProt Q02223 1-54); experiment: SPR, IgG immobilized, human BCMA analyte, 37 C
# T1 construct: soluble analyte in SPR; also called hBCMA; huBCMA
# T1 sequence: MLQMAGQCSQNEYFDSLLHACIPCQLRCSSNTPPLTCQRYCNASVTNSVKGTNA
# Method: (§1) All experiments were performed on a Bio-Rad Proteon XPR36 surface Plasmon resonance biosensor (Bio-Rad, Hercules, CA). […] The analysis temperature for the immobilization was 25° C. and the running buffer was HBS-T+(10 mM HEPES, 150 mM NaCl, 0.05% Tween-20, pH 7.4). Channels were activated in the analyte (horizontal) direction by injecting a mixture of 1 mM ECD and 0.25 mM NHS for 3 minutes at a flow rate of 30 μL/min. IgGs were immobilized on the activated spots by injecting them in the ligand (vertical) direction at […] in 10 mM Acetate pH 4.5 buffer for 1.5 minutes at 30 pg/mL. The activated surfaces were blocked by injecting 1M ethanolamine, pH 8.5 in the analyte direction for 3 minutes at 30 pL/min.
# (§2) The analysis temperature for the hBCMA binding analysis was 37° C. or 25° C. in a running buffer of HBS-T+, supplemented with 1 mg/mL BSA. A kinetic titration method was employed for the interaction analysis as described in Abdiche, et al. The hBCMA (human BCMA) analyte was injected in the analyte direction using a series of injections from low to high concentration. The concentrations used were 0.08 nM, 0.4 nM, 2 nM, 10 nM and 50 nM (a 5-membered series, with a 5-fold dilution factor and top concentration of 50 nM). The association time for a given analyte dilution was two minutes. Immediately after the 50 nM hBCMA injection, dissociation was monitored for 2 hours.
# (§3) The sensorgrams were double-referenced and fit to a 1:1 Langmuir with mass transport kinetic titration model in BIAevaluation Software version 4.1.1 (GE Lifesciences, Piscataway, NJ).
# human BCMA [2] = target: T2, human BCMA (human, UniProt Q02223 1-54); experiment: SPR, immobilised IgG, 37° C
# T2 construct: also called huBCMA; hBCMA
# T2 sequence: T1 sequence
# cyBCMA [3] = target: T3, cyBCMA (cynomolgus, UniProt A0A2K5UD97 1-53); experiment: SPR, immobilised IgG, 37° C
# T3 construct: Soluble analyte in SPR; construct not described; also called cyno BCMA
# human BCMA [4] = target: T2, human BCMA; experiment: SPR, immobilised IgG, 25° C
# cyBCMA [5] = target: T3, cyBCMA; experiment: SPR, immobilised IgG, 25° C
# human CD3 (huCD3ed) [6] = target: T4, human CD3 (huCD3ed) (human, UniProt P07766 23-126; P04234 22-105); experiment: SPR (ProteOn XPR36), IgG amine-coupled on chip, huCD3ed as analyte, 37 C
# T4 construct: Soluble analyte in SPR; The delta chain is inferred from the label 'ed'; also called hCD3ed; hCD3
# Method: as §1, with “[…].” for “pg/mL.”, “μL/min.” for “pL/min.”
# as §2, with “hCD3” for “hBCMA”, “CD3)” for “BCMA)”
# as §3
# human CD3 (huCD3ed) [7] = target: T4, human CD3 (huCD3ed); experiment: SPR (ProteOn XPR36), IgG on chip, huCD3ed analyte, 37 C; column head says nM but kd/ka gives this number in M
# Method: as §1, with “[…].” for “pg/mL.”, “μL/min.” for “pL/min.”
# as §2, with “hCD3” for “hBCMA”, “CD3)” for “BCMA)”
# as §3
# human CD3 (huCD3ed) [8] = target: T4, human CD3 (huCD3ed); experiment: SPR (ProteOn XPR36), IgG amine-coupled on chip, huCD3ed as analyte, 25 C
# Method: as §1, with “[…].” for “pg/mL.”, “μL/min.” for “pL/min.”
# as §2, with “hCD3” for “hBCMA”, “CD3)” for “BCMA)”
# as §3
# cynomolgus CD3 (cyCD3ed) = target: T5, cynomolgus CD3 (cyCD3ed) (cynomolgus, UniProt Q95LI5 22-117; Q95LI8 22-105); experiment: SPR (ProteOn XPR36), IgG amine-coupled on chip, cyCD3ed as analyte, 25 C
# T5 construct: Named only by the column head 'cyCD3ed'
# human CD3 (huCD3ed) [9] = target: T4, human CD3 (huCD3ed); experiment: Biacore SPR, antibody as ligand, hCD3ed 80 nM-0.64 nM, kinetic fit
# T4 sequence (P07766 23-126, chain 1 of 2): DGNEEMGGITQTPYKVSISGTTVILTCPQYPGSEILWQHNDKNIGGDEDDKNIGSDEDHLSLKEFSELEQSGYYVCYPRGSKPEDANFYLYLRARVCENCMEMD
# T4 sequence (P04234 22-105, chain 2 of 2): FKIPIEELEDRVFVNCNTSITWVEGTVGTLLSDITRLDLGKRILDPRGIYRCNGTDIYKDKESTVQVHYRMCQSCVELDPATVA
# T3 sequence (A0A2K5UD97 entry or part of it): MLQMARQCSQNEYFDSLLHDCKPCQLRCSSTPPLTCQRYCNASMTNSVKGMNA
# T5 sequence (Q95LI5 22-117, chain 1 of 2): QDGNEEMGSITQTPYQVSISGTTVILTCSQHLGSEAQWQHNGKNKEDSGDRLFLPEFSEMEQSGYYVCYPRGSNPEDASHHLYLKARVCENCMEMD
# T5 sequence (Q95LI8 22-105, chain 2 of 2): as the sequence (P04234 22-105, chain 2 of 2) above, with I5V, N15K, I20V, S32T, D33N, I34N, T64A, S74N, V83L counted along it
binder,measurement,setting,value
B1,Kd,human BCMA [1],0.02 nM
same,koff,human BCMA [1],0.000155 s⁻¹
same,kon,human BCMA [1],7.86e+06 M⁻¹ s⁻¹
B2,T½,human BCMA [2],5.91 min
same,T½,cyBCMA [3],0.88 min
same,T½,human BCMA [4],50.7 min
same,T½,cyBCMA [5],3.9 min
B3,T½,human BCMA [4],36.7 min
same,T½,cyBCMA [5],4.5 min
B4,T½,human BCMA [4],30.1 min
same,T½,cyBCMA [5],4 min
B5,T½,human CD3 (huCD3ed) [6],0.83 min
same,koff,human CD3 (huCD3ed) [6],0.014 s⁻¹
same,kon,human CD3 (huCD3ed) [6],380000 M⁻¹ s⁻¹
same,Kd,human CD3 (huCD3ed) [7],38 nM
B6,T½,human CD3 (huCD3ed) [6],0.84 min
same,koff,human CD3 (huCD3ed) [6],0.0137 s⁻¹
same,kon,human CD3 (huCD3ed) [6],437000 M⁻¹ s⁻¹
same,Kd,human CD3 (huCD3ed) [7],31.4 nM
same,Kd,human CD3 (huCD3ed) [8],5.3 nM
same,T½,human CD3 (huCD3ed) [8],5.8 min
same,koff,human CD3 (huCD3ed) [8],0.002 s⁻¹
same,kon,human CD3 (huCD3ed) [8],370000 M⁻¹ s⁻¹
same,Kd,cynomolgus CD3 (cyCD3ed),3.8 nM
same,T½,cynomolgus CD3 (cyCD3ed),7.7 min
same,koff,cynomolgus CD3 (cyCD3ed),0.0015 s⁻¹
same,kon,cynomolgus CD3 (cyCD3ed),390000 M⁻¹ s⁻¹
B7,T½,human CD3 (huCD3ed) [6],0.72 min
same,koff,human CD3 (huCD3ed) [6],0.016 s⁻¹
same,kon,human CD3 (huCD3ed) [6],390000 M⁻¹ s⁻¹
same,Kd,human CD3 (huCD3ed) [7],41 nM
B8,T½,human CD3 (huCD3ed) [6],0.79 min
same,koff,human CD3 (huCD3ed) [6],0.021 s⁻¹
same,kon,human CD3 (huCD3ed) [6],240000 M⁻¹ s⁻¹
same,Kd,human CD3 (huCD3ed) [7],86 nM
B9,T½,human CD3 (huCD3ed) [6],0.5 min
same,koff,human CD3 (huCD3ed) [6],0.023 s⁻¹
same,kon,human CD3 (huCD3ed) [6],230000 M⁻¹ s⁻¹
same,Kd,human CD3 (huCD3ed) [7],100 nM
B10,T½,human CD3 (huCD3ed) [6],0.5 min
same,koff,human CD3 (huCD3ed) [6],0.023 s⁻¹
same,kon,human CD3 (huCD3ed) [6],250000 M⁻¹ s⁻¹
same,Kd,human CD3 (huCD3ed) [7],92 nM
B11,Kd,human CD3 (huCD3ed) [9],< 4.74 nM
same,t1/2,human CD3 (huCD3ed) [9],> 13.5 min
B12,Kd,human CD3 (huCD3ed) [9],7.33 nM
same,t1/2,human CD3 (huCD3ed) [9],4.21 min
B13,Kd,human CD3 (huCD3ed) [9],8 nM
same,t1/2,human CD3 (huCD3ed) [9],4.88 min
